Laboratory results reported in paper PMC9219861.

Biological target: ULK1 (UniProt O75385)
Assay: FLAG co-IP, ULK1 blot
Settings: reference: Flag-CHK2 WT, EBSS; sites T68

- binding against the reference: weaker
Substance: CHK2 (from UniProt O96017) Flag-CHK2 T68A, EBSS
